# From the supplement of paper PMC12042874
# ± gives the uncertainty stated by the source.
# Assay: amyloid nucleation score (Sup35N fusion, yeast selection) (log enrichment); library NNK1; higher = more nucleation; inactive = no reads after selection
# How it was run: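 The nucleation score is a DiMSum log enrichment of output over input reads, centred on the mode score of non-aggregating sequences. Sequences under 100 input reads were excluded, and reads came from Illumina sequencing of plasmid inserts. Psi-negative yeast expressing Sup35N fused to peptides of 20 random codons were induced with 100 μM copper sulfate for 24 hours and grown 7 days at 30°C on medium lacking adenine and uracil. Random libraries had three technical output replicates.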
row,Substance,amyloid nucleation score
1,SSSEGRWMGYGP,-0.276 ± 0.53
2,SSSHDSIVFVRRLPHYCRGF,0.323 ± 0.43
3,SSVARIIWKFCRFSTVGVCF,0.858 ± 0.59
4,SSVCGKL,-0.211 ± 0.7
5,SSVPHFAGSVVASDPPLYRL,0.949 ± 0.81
6,SSVSPIHHRLYKTETPMWLT,-0.369 ± 0.58
7,SSYAVSTSSPCLSATSARLK,0.893 ± 0.98
8,STAAVHCRMRTRFQLRRLRD,-0.086 ± 0.35
9,STFAAFSNTVYASCQYLLNG,-1.14 ± 0.93
10,STFSLTSRASHKVPQDRYFP,0.353 ± 0.61
11,STKSTQDSSSDFIAVCGKRE,0.925 ± 1.1
12,STLLYGLLAYWTYGFAWLFF,inactive
13,STLPMHRNMTLRRLSCVQSY,-0.069 ± 0.34
14,STLSAYCPTILA,0.171 ± 0.25
15,STNECSLLMGDSCGHHRSHC,-0.171 ± 0.9
16,STRYRPLNWYLTKPPVRFKM,-0.037 ± 0.56
17,STSATPYFSFRKIFMASAAS,-0.029 ± 0.57
18,STVAGRWNYCSVTLLCVGFF,1.45 ± 0.31
19,STVGPMWVWTTTLAKNAIPK,0.833 ± 0.57
20,SVAIASLFFLSFNFVDIRLL,0.832 ± 0.15
21,SVARCASPMQSLSLRGRPEG,inactive
22,SVCMLPIDGMGEEVRVFPGV,-0.641 ± 0.62
23,SVCVCLTIGCDFSIESVRCN,2.64 ± 0.32
24,SVDGL,-0.763 ± 0.2
25,SVDLFSCRRIRLTLLEVFVT,-0.028 ± 0.41

row,Substance,amyloid nucleation score
1,SVDLVMEYSCDGNTLDFRSL,0.157 ± 1.4
2,SVHSLMRDRISVPPRIVKNP,-0.008 ± 0.61
3,SVIVMVCVGL,1.78 ± 0.13
4,SVLDFNNYMEIVAQVKGEDP,inactive
5,SVLNNLAAPDKARLRPCNWV,0.379 ± 0.54
6,SVNLGGHAGCCGCWAYGGFR,0.851 ± 0.37
7,SVNWRYRALFDVRPAPLASQ,-1.74 ± 2.4
8,SVPRSGKALLLSMMQLGYDS,0.09 ± 0.39
9,SVRVPEHGRRWVSKGVG,-0.785 ± 1.1
10,SVSILP,-0.34 ± 0.53
11,SVSYRDCVVKILK,4 ± 0.074
12,SVTERCKLQSHHDMVGGM,3.37 ± 0.13
13,SVWLANCYGKYMGVVCYSKV,0.537 ± 0.32
14,SWCFN,1.34 ± 0.59
15,SWCHVKIVSYRVSEVR,0.228 ± 0.32
16,SWGFSMLRMEEWRMPVLFYS,-0.446 ± 0.58
17,SWNNLIVVRSKVDGCAVSAG,0.504 ± 0.73
18,SWPLWEVMPRWGARDRGWVG,0.553 ± 0.93
19,SWPMTIQYGDSIWNWKMSVM,0.388 ± 0.58
20,SWPSPGVRQEQNCWCTRTFV,inactive
21,SWRSSTCSALVQGQYKA,-0.051 ± 0.32
22,SWRVCVMFDTL,-0.987 ± 1.1
23,SWSITPNKKFDKTVSFQYHD,inactive
24,SWVNRPYWSPGDTTVWYGC,1.06 ± 0.52
25,SYESSLNGRISFRNGERLLC,0.115 ± 0.42

row,Substance,amyloid nucleation score
1,SYFGYNVIMEIHTI,-0.122 ± 0.31
2,SYFRREDCFVFKVITLFIMS,-0.675 ± 0.46
3,SYGSVCNDNQSNRRYVHIHM,2.89 ± 0.22
4,SYKLVRTLNG,inactive
5,SYLGSAAIYVCLAGRPSGQR,-0.725 ± 1.2
6,SYLHMFTMFV,-0.654 ± 0.52
7,SYLQGELTDDSMTSFFKGM,-1.3 ± 1.4
8,SYLYTVNLFDFYCCRLRGST,3.99 ± 0.1
9,SYMNGKWMSMWVRLWGCLAF,0.004 ± 0.48
10,SYMSLAFIS,0.004 ± 0.69
11,SYNQLDKCR,inactive
12,SYSCSVSRKEFSIGVGEHEG,-0.44 ± 0.5
13,SYSYIRLDNFSMFIYFADCS,3.92 ± 0.066
14,SYSYRLQPFIAMLLGSFL,-1.04 ± 2.7
15,SYWKNTVSCYVFFGMSRSRT,-0.634 ± 1.4
16,SYYHRFSRIGMRSLGQEQCY,inactive
17,SYYNSVWTRYECAVVWT,0.413 ± 1.1
18,SYYYHV,1.17 ± 0.66
19,TAALFLAMLGDYVVSNMWTT,inactive
20,TAGCICPCKQAVYGICQSRT,-0.447 ± 0.71
21,TAGFPLCYNCYEKP,-0.625 ± 0.35
22,TAKRLAT,0.21 ± 0.8
23,TATDPLLSYGAHL,-0.354 ± 0.31
24,TAVIKLSCLSLFMNSIMLVY,2.59 ± 0.12
25,TAYIIKHSFWLGPFNLGSLM,3.88 ± 0.12

row,Substance,amyloid nucleation score
1,TAYSNG,-0.814 ± 0.74
2,TAYVLLWTRTVFVFPEVHTF,0.887 ± 0.43
3,TCCRRVLSMEQQDTLVYWQY,-0.585 ± 1.7
4,TCHLIL,-0.872 ± 0.34
5,TCKTHHRGTPGATVFPKDTA,0.17 ± 0.45
6,TCNHYNRVVFQSNVIYLIHV,2.77 ± 0.15
7,TCNRHSDTEGLC,-1.13 ± 0.66
8,TCRCTKLTSAYMLRVWSVQF,-0.332 ± 0.55
9,TCSSLRSLLWSCVVRALLWT,-0.528 ± 1.2
10,TDAPHTCWLFFLYSVSFLIV,-0.204 ± 0.43
11,TDIIFIVRYSVVLVSLCSKC,-0.343 ± 0.69
12,TDLNLVMKKGSYVGCSSSCV,-0.605 ± 0.24
13,TDQCGWGTVRRSAETSLGQL,0.77 ± 0.78
14,TDSSREGVNLHKLLFTFAMR,0.137 ± 1.1
15,TDYRFTRVWRRGVARS,0.707 ± 0.55
16,TEEFYPARSCMK,-1.87 ± 1.3
17,TEGPSN,inactive
18,TESPRCRVPGVELPD,-0.136 ± 0.67
19,TFCCIVSFF,7.199 ± 0.049
20,TFFYKDSDRDSCMGMLLIVC,0.295 ± 0.44
21,TFGSETESMLNTKYSSGCVG,0.067 ± 0.55
22,TFGVVEFSRNRGMSLCETLN,0.386 ± 0.42
23,TFKYFDSLTLPDLYIVVHGS,0.037 ± 0.2
24,TFLQFTRYFWLTTYNKGSS,inactive
25,TFLYKKLTFEVVWGCLIASE,-0.041 ± 0.84

row,Substance,amyloid nucleation score
1,TFNLVLGLSWNPDMFGDKGV,1.2 ± 0.41
2,TFSGFYGVYYNQILVGSLIQ,inactive
3,TFTCVITSGCDLYPLLGHIS,0.9 ± 0.4
4,TFVLRCFSRCDGAITFQTRP,1.14 ± 0.2
5,TFWTLVQQATVKHMLYGTFL,-0.663 ± 1.9
6,TFWVGEKSRVGSVPFQYLRL,-0.152 ± 0.31
7,TFYEHMVCGRHQSQAVWLVK,0.169 ± 0.6
8,TGDLVTLGGVGL,0.309 ± 0.42
9,TGDVLIYWFLVTHRMTAVQV,-0.096 ± 1
10,TGFGKKRATGWVAWGWEKLL,-0.468 ± 0.32
11,TGKAVTSGWKNIVSSITSQR,-0.434 ± 0.58
12,TGLPFYEEIMRTPHM,-0.766 ± 0.5
13,TGMWPFNRRCITIRTVSRNL,0.467 ± 0.93
14,TGPVLTPKSCYFGHINSSCF,-0.009 ± 0.29
15,TGQLDV,1.75 ± 0.58
16,TGRRIVGYDCLNRSCMYICV,-0.321 ± 0.25
17,TGRRLERGMRLRHGDAEYCC,0.408 ± 0.28
18,TGSLG,-0.214 ± 0.31
19,TGTHDVVVAVGYR,-0.658 ± 0.54
20,TGYGVAVGPFVGGDF,-0.548 ± 1.5
21,TGYLERRVGYYRVRFRCERS,0.022 ± 0.6
22,THCFFYHLGKFYMSKITLAS,-1.48 ± 2.7
23,THDAFF,0.642 ± 0.48
24,THFMYIVELERGRLFGCSVR,0.115 ± 1
25,THLGGRRFHFSELRTRSSRG,-0.023 ± 0.49

row,Substance,amyloid nucleation score
1,THQGWYSQNEHERRWIVHSF,0.028 ± 0.58
2,THTYGGDG,-0.096 ± 0.74
3,TICNMSRWYDMKNYGEKMEV,1.21 ± 0.6
4,TIDGSPIGMTTWPVPSFKFS,0.742 ± 0.56
5,TIFGHVRGSYETKWMWAPWR,2.98 ± 0.12
6,TIFLSF,-0.284 ± 0.27
7,TIHFRSDQHLSNIWRGFWQY,inactive
8,TILGVITKIVQTLLWMPWVA,-1.37 ± 0.9
9,TINWEPRFRVLHSPIYRGCY,inactive
10,TITDNSPNKTMIEVEEIRL,0.109 ± 1.1
11,TITHGYLRLRYCVR,-0.292 ± 0.44
12,TKCHIQLYIALASVAGGSGF,2.36 ± 0.29
13,TKGAFKVEKWSLSE,-0.115 ± 0.23
14,TKMCF,0.105 ± 0.41
15,TKVFGRYLVVSGRFCIIEKK,-0.371 ± 0.38
16,TLCREEVETRLEATFCGCTN,0.979 ± 0.84
17,TLDWLMSIFLILVSLAFNGL,-0.14 ± 0.33
18,TLDYVSYWGFTIWYAFMMVL,inactive
19,TLFRGMGYSWNVNKPDARKV,-0.403 ± 1.4
20,TLGLVDERHEDWIVLDYTLG,0.422 ± 0.53
21,TLLMRSEGYLFYYAPSLSLV,-0.494 ± 0.44
22,TLLPARGGKKAR,0.256 ± 0.49
23,TLMNHGRESLGWFD,-0.828 ± 0.66
24,TLPDKRILLSANIMPALVCN,0.837 ± 0.31
25,TLQLN,-0.59 ± 0.65

row,Substance,amyloid nucleation score
1,TLRVIAVVDTFSRVYFR,3.58 ± 0.12
2,TLSKVICVSPTVGMGLSSER,0.616 ± 0.79
3,TLSSRSYC,0.402 ± 0.33
4,TLVCNGQISTNLYYVKVGSS,2.83 ± 0.12
5,TLVSAVSCCLNAC,-0.269 ± 0.26
6,TLWVNIG,-1.44 ± 2.7
7,TMFIFCWKTGVCLYCNLFTS,-0.591 ± 0.4
8,TMIDNPVYPSVFRVGHDTLV,0.356 ± 0.3
9,TMRSNRLFRICFCLGKKYWL,-0.562 ± 0.33
10,TMWIAGVRNR,-0.367 ± 0.62
11,TNFCGVNPGRIIRLWEDRSW,-0.762 ± 0.45
12,TNFLKSFHV,-1.95 ± 1.8
13,TNGLCFI,-0.833 ± 0.74
14,TNGRR,-0.691 ± 1.2
15,TNTSWVFVVCIEHKEMDQAV,5.9 ± 0.086
16,TNVNF,-1.24 ± 0.74
17,TPFRDKHGGVWVV,0.505 ± 0.56
18,TPLFRGFIMLQPRLRCDKFA,0.013 ± 0.31
19,TPNQSRFPNAVMTDTVTSFS,0.214 ± 0.81
20,TQDIILDNSHDATHQHTRRA,-0.243 ± 1
